Results from patent US20060009622A1 (ADMINISTRATORS OF THE TULANE EDUCATIONAL FUND, published 2006).
Each block holds one molecule with its values, some of them ahead of it. Numbered stars: 1 amine (or outer) side, 2 acyl side, 3 side chain; on linkers, the order of the positions; unused ones are H or OH. Bridge positions count the residues as written; N and C are the ends. Square brackets hold non-standard residues; d marks the D form. Ends that are not written are not given here. NGly(2-(methylamino)ethyl) = CN(CCN(CC(=O)[*:2])[*:1])[*:3]; N(2-Aminoethyl)Gly = O=C(CN(CCN[*:3])[*:1])[*:2]; Nle = CCCC[C@H](N)C(=O)O

Biological target: human type 2 somatostatin receptor (human, UniProt P30874 1-369, limits assumed)
Sequence (P30874 whole entry): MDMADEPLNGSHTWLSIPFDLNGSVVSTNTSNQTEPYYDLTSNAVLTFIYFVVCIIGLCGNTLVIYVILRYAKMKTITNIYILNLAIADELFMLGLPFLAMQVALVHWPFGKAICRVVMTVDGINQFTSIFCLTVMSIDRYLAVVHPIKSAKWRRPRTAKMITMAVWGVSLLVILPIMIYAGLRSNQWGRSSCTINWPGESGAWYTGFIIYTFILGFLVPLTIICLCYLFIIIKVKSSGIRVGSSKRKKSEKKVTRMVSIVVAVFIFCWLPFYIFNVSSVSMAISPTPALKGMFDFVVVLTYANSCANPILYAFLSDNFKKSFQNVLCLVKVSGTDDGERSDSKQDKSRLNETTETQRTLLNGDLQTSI
Assay: cell-based or functional assay

B1: camptothecin-carbonyl-N-(N-methyl-2-aminoethyl)-glycine-D-Ser-Nle-D-Tyr-D-Ser-cyclo[Cys-Phe-D-Trp-Lys-Thr-Cys]-Thr-amide (peptide)
peptide: [NGly(2-(methylamino)ethyl)][dS][Nle][dY][dS]CF[dW]KTCT-NH2
modifications: disulfide 6-11; not fully specified (N-terminus); printed as camptothecin-carbonyl-N-(N-methyl-2-aminoethyl)-glycine-D-Ser-Nle-D-Tyr-D-Ser-cyclo[Cys-Phe-D-Trp-Lys-Thr-Cys]-Thr-amide
- Growth Hormone Inhibition IC50, nM (inhibition of GNRH-stimulated GH release from monolayer cultures of rat pituitary cells): 0.27 nM

B2: camptothecin-carbonyl-N-(2-aminoethyl)-glycine-D-Ser-Nle-D-Tyr-D-Ser-cyclo[Cys-Phe-D-Trp-Lys-Thr-Cys]-Thr-amide (peptide)
peptide: [N(2-Aminoethyl)Gly][dS][Nle][dY][dS]CF[dW]KTCT-NH2
modifications: disulfide 6-11; not fully specified (N-terminus); printed as camptothecin-carbonyl-N-(2-aminoethyl)-glycine-D-Ser-Nle-D-Tyr-D-Ser-cyclo[Cys-Phe-D-Trp-Lys-Thr-Cys]-Thr-amide
- Growth Hormone Inhibition IC50, nM (inhibition of GNRH-stimulated GH release from monolayer cultures of rat pituitary cells): 0.32 nM

Now from value to molecule:

- Growth Hormone Inhibition IC50, nM (inhibition of GNRH-stimulated GH release from monolayer cultures of rat pituitary cells): 0.63 nM
Molecule: somatostatin-14 (from UniProt P61278 89-116) (peptide)

- Growth Hormone Inhibition IC50, nM (inhibition of GNRH-stimulated GH release from monolayer cultures of rat pituitary cells): 0.31 nM
B3: combretastatin-carbonyl-N-(2-aminoethyl)-glycine-D-Ser-Nle-D-Tyr-D-Ser-cyclo[Cys-Phe-D-Trp-Lys-Thr-Cys]-Thr-amide (peptide)
peptide: [N(2-Aminoethyl)Gly][dS][Nle][dY][dS]CF[dW]KTCT-NH2
modifications: disulfide 6-11; not fully specified (N-terminus); printed as combretastatin-carbonyl-N-(2-aminoethyl)-glycine-D-Ser-Me-D-Tyr-D-Ser-cyclo[Cys-Phe-D-Trp-Lys-Thr-Cys]-Thr-amide
